B1: PA-PB1-PB2(1-116) truncated heterotrimer (construct 15) (complex)
chain 1: […]
chain 2: MDVNPTLLFLKVPAQNAISTTFPYTGDPPYSHGTGTGYTMDTVNRTHQYSEKGKWTTNTETGAAQLNPIDGPLPEDNEPSGYAQTDCVLEAMAFLEESHPGIFENSCLETMEVVQQTRVDRLTQGRQTYDWTLNRNQPAATALANTIEVFRSNGLIANESGRLIDFLKDVIESMDKEEMEITTHFQRKRRVRDNMTKKMVTQRTIGKKKQRVNKRSYLIRALTLNTMTKDAERGKLKRRAIATPGMQIRGFVYFVETLARSICEKLEQSGLPVGGNEKKAKLANVVRKMMTNSQDTELSFTITGDNTKWNENQNPRMFLAMITYITKNQPEWFRNILSIAPIMFSNKMARLGKGYMFESKRMKLRTQIPAEMLASIDLKYFNESTRKKIEKIRPLLIDGTASLSPGMMMGMFNMLSTVLGVSILNLGQKKYTKTTYWWDGLQSSDDFALIVNAPNHEGIQAGVDRFYRTCKLVGINMSKKKSYINRTGTFEFTSFFYRYGFVANFSMELPSFGVSGINESADMSIGVTVIKNNMINNDLGPATAQMALQLFIKDYRYTYRCHRGDTQIQTRRSFELKKLWEQTRSKAGLLVSDGGPNLYNIRNLHIPEVCLKWELMDEDYQGRLCNPLNPFVSHKEIESVNNAVVMPAHGPAKSMEYDAVATTHSWIPKRNRSILNTSQRGILEDEQMYQKCCNLFEKFFPSSSYRRPVGISSMVEAMVSRARIDARIDFESGRIKKEEFSEIMKICSTIEELRRQK
chain 3: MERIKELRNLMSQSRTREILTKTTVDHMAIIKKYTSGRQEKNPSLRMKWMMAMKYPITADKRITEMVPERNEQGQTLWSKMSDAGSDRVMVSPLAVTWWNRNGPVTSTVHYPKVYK
notes: copies: + +
B2: PA-PB1-PB2(1-250) truncated heterotrimer (construct 16) (complex)
chain 1: […]
chain 2: B1 chain 2
chain 3: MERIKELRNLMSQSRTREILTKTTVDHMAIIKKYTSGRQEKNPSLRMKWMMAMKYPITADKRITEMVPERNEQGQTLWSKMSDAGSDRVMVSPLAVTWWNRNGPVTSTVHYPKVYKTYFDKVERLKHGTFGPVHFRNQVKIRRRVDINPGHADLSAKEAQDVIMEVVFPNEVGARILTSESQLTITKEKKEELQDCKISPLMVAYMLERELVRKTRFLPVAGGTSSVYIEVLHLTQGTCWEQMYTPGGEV
notes: copies: + +

Target: the molecule itself
Experiment: SEC-MALS

Protein | stoichiometry N
B1 | 2
B2 | 2

Source: article PMC4837377 (Scientific Reports, 2016)
